From article PMC8191756

Legend:
SENP1 = SENP1 (UniProt Q9P0U3); experiment: co-IP; conditions: reference: wild type
UBC9 = UBC9 (UniProt P63279); experiment: co-IP, Strep-ALKBH5 with Flag-UBC9; conditions: reference: wild type

Substance	binding against the reference (SENP1; sites S87)	binding against the reference (UBC9; sites S87)	binding against the reference (SENP1; sites S325)	binding against the reference (UBC9; sites S325)
ALKBH5 (from UniProt Q6P6C2) S87A	stronger	weaker	–	–
ALKBH5 (from UniProt Q6P6C2) S325A	–	–	stronger	weaker
